From PMC10896785

Biological target: heat shock protein 90 (Hsp90), endogenous mouse, P07901
Assay: in situ proximity-ligation assay (PLA)
Conditions: chain shown with the change; primary mouse embryonic fibroblasts (MEFs); anti-FKBP51 and anti-Hsp90 antibodies; parent: est. 240; read off a plot

B1: FK506-binding protein 51 kDa (FKBP51), wild-type mouse, Q64378 K352A; R356A (protein)
chain: MTTDEGTSNNGENPAATMTEQGEDITTKKDRGVLKIVKRVGTSDEAPMFGDKVYVHYKGMLSDGKKFDSSHDRKKPFAFSLGQGQVIKAWDIGVSTMKKGEICHLLCKPEYAYGSAGHLQKIPSNATLFFEIELLDFKGEDLFEDSGVIRRIKRKGEGYSNPNEGATVKVHLEGCCGGRTFDCRDVVFVVGEGEDHDIPIGIDKALVKMQREEQCILYLGPRYGFGEAGKPKFGIDPNAELMYEVTLKSFEKAKESWEMDTKEKLTQAAIVKEKGTVYFKGGKYTQAVIQYRKIVSWLEMEYGLSEKESKASESFLLAAFLNLAMCYLKLREYNKAVECCDKALGLDSANEAGLYARGEAQLLMNDFESAKGDFEKVLAVNPQNRAARLQISMCQRKAKEHNERDRRVYANMFKKFAERDAKEEASKAGSKKAVEGAAGKQHESQAMEEGKAKGHV
B1 was tested. Which response (PLA dots/Nuclei) did it give?
Its response (PLA dots/Nuclei) is 73.
